In assay [1] the test system is CGR8 mESCs stably transfected with eGFP under control of the alpha myosin heavy chain (aMHC) promoter. Briefly: cardiomyocyte screening assay (aMHC-eGFP mESC differentiation, imaging). The class given is cell-based, mouse. The following applies: structure IIA; activity relative to compound 28 = 100%. How it is done:
The primary screen is conducted with CGR8 mESCs stably transfected with eGFP under control of the alpha myosin heavy chain (aMHC) promoter (Takahashi, et al., Circulation, 107(14):1912, 2003). The bioassay is run essentially as described (Bushway et al., Methods Enzymol, 414:300, 2006). Briefly, cells were seeded onto Greiner 384 well microclear bottom microtiter plates in ½ well volume at a density of ˜229 cells/mm2. […]
The optimal time to stop the differentiation is empirically determined to be at day 9 of differentiation, when cardiomyocytes appear in positive control cultures that have higher density cells or culture the cells in embryoid body (not monolayer) culture. […] Image quantification is done using a simple image subtraction routine that subtracted the red channel images from the green (eGFP) channel images to remove background signal from the eGFP images. […]
Follow-up confirmations and testing of hits for SAR were performed on the Hamilton STAR fluid handler with integrated Kendro Cytomat plate hotel and Kendro Cytomat plate incubators using the Hamilton STAR liquid handler robot. […] Image quantification is performed on captured TIFF images using the Developer Toolbox (GE/Amersham) with custom algorithms. […]

Assay [2] deals with mESC. The experiment in a line: serum-free mESC cardiac differentiation assay (day 2 to day 4 exposure). The settings on record: added alone, day 2 to day 4, serum free. The class given is cell-based, mouse. How it is done: To define the point of action in more detail, a more focused assay is designed to probe the activities of the compounds between days 2-4 of differentiation. Of note is that the original assay is performed in the presence of serum, which activates many pathways that obscure the targets of the small molecules. Since serum activates many pathways and many genes, its presence confounds analysis of downstream targets. Thus, a serum-free mESC cardiac differentiation assay is set up to more precisely validate the activity of the compounds and determine if they acted independently or synergized with a known inducer. The refined assay, diagrammed in FIG. 4, tested the ability of the small molecules to stimulate mesodermal differentiation from day 2 to day 4. Differentiation is initiated by aggregating mESC into embryoid bodies (EBs) in serum free conditions. Day 2 EBs were dispersed in the presence of growth factors or small molecules to allow maximal exposure. Cells were allowed to re-aggregate into EBs until day 4 when they were dispersed and plated in conducive conditions for cardiac differentiation to day 9, at which point eGFP is imaged and quantified by the algorithm described above.
FIG. 5 summarizes experiments showing synergy with Activin/Nodal signaling.

Take `COc1nnc(Nc2ccc3c(c2)ncn3C2CC2)c2ccccc12` [Compound 104]: the result in assay [1] was INACTIVE.

B1: BMP4 (protein, UniProt P12644 293-408, looked up)
Bone morphogenetic protein 4: SPKHHSQRARKKNKNCRRHSLYVDFSDVGWNDWIVAPPGYQAFYCHGDCPFPLADHLNSTNHAIVQTLVNSVNSSIPKACCVPTELSAISMLYLDEYDKVVLKNYQEMVVEGCGCR
notes: "posteriorizing growth factors such as BMP4"
For B1, the “cardiogenesis (cardiomyocytes at day 9)” value in assay [2] is “does not”.

B2: Activin A (protein, UniProt P08476 311-426, looked up)
Inhibin beta A chain: GLECDGKVNICCKKQFFVSFKDIGWNDWIIAPSGYHANYCEGECPSHIAGTSGSSLSFHSTVINHYRMRGHSPFANLKSCCVPTKLRPMSMLYYDDGQNIIKKDIQNMIVEECGCS
notes: "an inducer of anterior mesoderm and endoderm"
As for B2, in assay [2], the “cardiogenesis (cardiomyocytes at day 9)” value is recorded as “efficient cardiogenesis”.

(Values after patent US9012217B2, “Benzimidazole compounds differentiate a mammalian stem cell into mesodermal or cardiomyocyte cells” (Burnham Institute for Medical Research, priority 2008, dated 2015).)
